From US20240409648A1 (Boehringer Ingelheim, published 2024)
Numbering of substitutions follows the chain as printed.

T1: human IL-36R on cells (HEK293 cells transfected with full-length human IL-36R); NCI/ADR-RES cells; human … (human, UniProt Q9HB29 20-575)
T1 sequence (looked up): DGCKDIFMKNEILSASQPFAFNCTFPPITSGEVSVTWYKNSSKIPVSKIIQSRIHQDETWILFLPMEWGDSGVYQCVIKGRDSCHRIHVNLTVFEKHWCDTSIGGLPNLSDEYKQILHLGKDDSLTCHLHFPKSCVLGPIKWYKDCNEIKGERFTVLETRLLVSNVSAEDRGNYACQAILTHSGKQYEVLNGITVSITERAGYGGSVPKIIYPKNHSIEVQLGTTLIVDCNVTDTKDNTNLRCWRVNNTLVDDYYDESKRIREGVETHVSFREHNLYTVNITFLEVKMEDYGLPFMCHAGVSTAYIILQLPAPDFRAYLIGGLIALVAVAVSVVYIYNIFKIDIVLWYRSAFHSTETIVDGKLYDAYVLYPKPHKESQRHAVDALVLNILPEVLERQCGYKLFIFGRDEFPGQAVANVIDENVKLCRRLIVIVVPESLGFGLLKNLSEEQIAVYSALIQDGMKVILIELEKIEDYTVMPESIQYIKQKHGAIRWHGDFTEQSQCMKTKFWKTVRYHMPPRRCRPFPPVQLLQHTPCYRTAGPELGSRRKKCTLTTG

B1: antibody 76E10 (antibody, V domains shown)
VH: QVQLKESGPVLVAPSQSLSITCTVSGFSLTNYGVHWVRQPPGKGLEWLGVIWPVGSTNYNSALMSRLSIHKDNSKSQVFLRMNSLQTDDTAIYYCAKMDWDDFFDYWGQGTTLTVSS
VL: DIVMTQSQKFMSATVGGRVNITCKASQNVGRAVAWYQQKPGQSPKLLTHSASNRYTGVPDRFTGSGSGTDFTLTITNMQSEDLADYFCQQYSSYPLTFGAGTKLDLK
B2: Mouse 78C8 (antibody 78C8) (antibody, V domains shown)
VH: QVQLKESGPVLVAPSQSLSITCTVSGFSLTKFGVHWIRQTPGKGLEWLGVIWAGGPTNYNSALMSRLTISKDISQSQVFLRIDSLQTDDTAMYYCAKQIYYSTLVDYWGQGTSVTVSS
VL: DVLLTQTPLSLPVSLGDQASISCRSSQNIVHSNGNTYLQWYLQKPGQSPKLLIYKVSNRFSGVPDRFSGSGSGTDFTLKISRVEAEDLGVYYCFQGSHVPFTFGAGTKLELK
B3: Mouse 81A1 (antibody 81A1) (antibody, V domains shown)
VH: QVQLKESGPGLVAPSQSLFITCTVSGFSLSSYEINWVRQVPGKGLEWLGVIWTGITTNYNSALISRLSISKDNSKSLVFLKMNSLQTDDTAIYYCARGTGTGFYYAMDYWGQGTSVTVSS
VL: DIQMTQTTSSLSASLGDRVTISCRASQDIYKYLNWYQQKPDGTLKLLIYYTSGLHSGVPSRFSGSGSGTDFSLTISNLEPEDIATYFCQQDSKFPWTFGGDTKLEIK
B4: Mouse 81B4 (antibody 81B4) (antibody, V domains shown)
VH: QVQLQQPGADFVRPGASMRLSCKASGYSFTSSWIHWVKQRPGQGLEWIGEINPGNVRTNYNENFRNKATLTVDKSSTTAYMQLRSLTSADSAVYYCTVVFYGEPYFPYWGQGTLVTVSA
VL: QIVLTQSPAIMSASLGERVTMTCTASSSVSSSYFHWYQQKPGSSPKLWIYRTSNLASGVPGRFSGSGSGTSYSLTISSMEAEDAATYYCHQFHRSPLTFGAGTKLELK
B5: antibody 89A12 (antibody, V domains shown)
VH: EVQLQQSGAELVRPGASVRLSCTASGFNIKDDYIHWVRQRPKQGLEWLGRIDPANGNTKYDPRFQDKATITADTSSNTAYLHLSSLTSEDTAVYYCAKSFPDNYYSYDDAFAYWGQGTLVTVSA
VL: DIQMTQSPASQSASLGESVTFSCLASQTIGTWLGWYQQKPGKSPQLLIYRATSLADGVPSRFSGSGSGTNFSFKISSLQAEDLASYYCQQLYSGPYTFGGGTKLEIR
B6: antibody 172C8 (antibody, V domains shown)
VH: EVQLQQSGPELVKPGASVKLSCKASGYTFTDNYMNWVRQSHGKSLEWIGRVNPSNGDTKYNQNFKGKATLTVDKSLSTAYMQLNGLTSEDSAVYYCGRTKNFYSSYSYDDAMDYWGQGTSVTVSS
VL: DIQMTQSPASQSASLGESVTFTCLASQTIGTWLAWYQQRPGKSPQLLIYAATSLADGVPSRFSGSGSGTQFSFNIRSLQAEDFASYYCQQVYTTPLTFGGGTKLEIK
B7: antibody 67E7 (antibody, V domains shown)
VH: B5 VH with L11F, R19K, L20F, K42E, L48V, D61A, R63K, H82Q, D102N
VL: B5 VL with S22T, A51S, S53T, N70K, E81A, L83F, G94A
B8: Mouse 33D10 (antibody 33D10) (antibody, V domains shown)
VH: QVQLQQSGTELLKPGASVKLSCKASGNTVTSYWMHWVKQRPGQGLEWIGEILPSTGRTNYNENFKGKAMLTVDKSSSTAYMQLSSLASEDSAVYYCTIVYFGNPWFAYWGQGTLVTVSA
VL: B4 VL with F34L, Q39K, I49V, R51S, G61V, F92H, L97V, A101S, L107M
B9: Mouse 73C5 (antibody 73C5) (antibody, V domains shown)
VH: QVQLKESGPGLVAPSQSLSITCTVSGFSLTNYAVHWVRQFPGKGLEWLGVIWSDGSTDFNAPFKSRLSINKDNSKSQVFFKMNSLQIDDTAIYYCARKGGYSGSWFAYWGQGTLVTVSA
VL: DIVMTQSQKFLSTSVGVRVSVTCKASQDVGTNVLWYQQKIGQSPKPLIYSASYRHSGVPDRFTGSGSGTDFTLIISNVQSEDLAEYFCQQYSRYPLTFGPGTKLELK
B10: Mouse 73F6 (antibody 73F6) (antibody, V domains shown)
VH: B9 VH with F59Y, I87T
VL: B9 VL with P46A, S76T

target: cynomolgus IL-36R on BaF/3 cells (cynomolgus); test: cell-based or functional assay

**Q.** For B1, which “IC90 pNFκB, trun-IL-36a, BaF/3 cynomolgus IL-36R cells” value (“IC90 pNFκB, trun-IL-36a” for short) is on record?
**A.** > 4 µM

**Q.** And the “IC90 pNFκB, trun-IL-36b, BaF/3 cynomolgus IL-36R cells” value (from here on “IC90 pNFκB, trun-IL-36b”)?
**A.** > 333 nM

**Q.** What about the “IC90 pNFκB, trun-IL-36g, BaF/3 cynomolgus IL-36R cells” value of the same binder?
**A.** > 333 nM

**Q.** What does the source list for B2?
**A.** IC90 pNFκB, trun-IL-36a, BaF/3 cynomolgus IL-36R cells: 1 nM; IC90 pNFκB, trun-IL-36b, BaF/3 cynomolgus IL-36R cells: 2.1 nM; IC90 pNFκB, trun-IL-36g, BaF/3 cynomolgus IL-36R cells: 1.5 nM

**Q.** With B3 as the binder, how does the “IC90 pNFκB, trun-IL-36a” value read?
**A.** 0.6 nM

**Q.** And the “IC90 pNFκB, trun-IL-36b” value?
**A.** 0.9 nM

**Q.** And the “IC90 pNFκB, trun-IL-36g, BaF/3 cynomolgus IL-36R cells” value?
**A.** 1 nM

**Q.** With B4 as the binder, how does the “IC90 pNFκB, trun-IL-36a” value read?
**A.** 2.4 nM

**Q.** And the “IC90 pNFκB, trun-IL-36b” value?
**A.** 3.5 nM

**Q.** And the “IC90 pNFκB, trun-IL-36g, BaF/3 cynomolgus IL-36R cells” value?
**A.** 5.1 nM

**Q.** For B5, which “IC90 pNFκB, trun-IL-36a” value is on record?
**A.** > 4 µM

**Q.** What about the “IC90 pNFκB, trun-IL-36b” value of the same binder?
**A.** > 333 nM

**Q.** What about the “IC90 pNFκB, trun-IL-36g, BaF/3 cynomolgus IL-36R cells” value of the same binder?
**A.** > 333 nM

**Q.** What does the source list for B6?
**A.** IC90 pNFκB, trun-IL-36a, BaF/3 cynomolgus IL-36R cells: > 4 µM; IC90 pNFκB, trun-IL-36b, BaF/3 cynomolgus IL-36R cells: > 333 nM; IC90 pNFκB, trun-IL-36g, BaF/3 cynomolgus IL-36R cells: > 333 nM

**Q.** Which results are given for B7?
**A.** IC90 pNFκB, trun-IL-36a, BaF/3 cynomolgus IL-36R cells: > 4 µM; IC90 pNFκB, trun-IL-36b, BaF/3 cynomolgus IL-36R cells: > 333 nM; IC90 pNFκB, trun-IL-36g, BaF/3 cynomolgus IL-36R cells: > 333 nM

**Q.** With B8 as the binder, how does the “IC90 pNFκB, trun-IL-36a” value read?
**A.** > 4 µM

**Q.** And the “IC90 pNFκB, trun-IL-36b” value?
**A.** > 333 nM

**Q.** What about the “IC90 pNFκB, trun-IL-36g, BaF/3 cynomolgus IL-36R cells” value of the same binder?
**A.** > 333 nM

**Q.** Which “IC90 pNFκB, trun-IL-36a” value does the source give for B9 here?
**A.** 0.2 nM

**Q.** What about the “IC90 pNFκB, trun-IL-36b” value of the same binder?
**A.** 1.6 nM

**Q.** And the “IC90 pNFκB, trun-IL-36g, BaF/3 cynomolgus IL-36R cells” value?
**A.** 1.5 nM

**Q.** How did the “IC90 pNFκB, trun-IL-36a” value turn out when B10 was run?
**A.** 0.5 nM

**Q.** What about the “IC90 pNFκB, trun-IL-36b” value of the same binder?
**A.** 0.7 nM

**Q.** What about the “IC90 pNFκB, trun-IL-36g, BaF/3 cynomolgus IL-36R cells” value of the same binder?
**A.** 0.8 nM

target: T1, human IL-36R on cells (HEK293 cells …); test: cell-based or functional assay

**Q.** How did the “IC90 pNFκB, trun-IL-36g, human primary keratinocytes (NHK)” value turn out when B4 was run?
**A.** 0.5 nM
